10 molecules from patent publication US20260241049A1, “Radiopharmaceutical Compositions Targeting Glypican-3 and Uses Thereof” (RayzeBio, Inc., priority 2023, published 2026) can be followed below.

Starred links: 1 amine or outer side, 2 acyl side, 3 side chain; linkers in the order of their positions; H or OH if unused. Positions of bridges follow the written chain, without caps; N, C: chain ends. Non-standard residues stand in square brackets, D forms with d. Groups on a side chain read outwards from the residue. Primed or numbered codes have the meaning given here. *: point of attachment. MeDapCOpipzaa = 3-(4-(carboxymethyl)piperazine-1-carboxamido)-2-(methylamino)propanoic acid, CN([C@@H](CNC(=O)N1CCN(CC(=O)[*:3])CC1)C(=O)[*:2])[*:1]; MeKCOpipzaa = N-alpha-methyl-N6-[4-(carboxymethyl)piperazine-1-carbonyl]-L-lysine, CN([C@@H](CCCCNC(=O)N1CCN(CC(=O)[*:3])CC1)C(=O)[*:2])[*:1]; 3Py6NHaa = 2-amino-3-(6-((carboxymethyl)amino)pyridin-3-yl)propanoic acid, O=C([C@H](Cc1ccc(NCC(=O)[*:3])nc1)N[*:1])[*:2]; MeHseMe″ = (2S)-4-methoxy-2-(methylamino)butanoic acid (N-methyl-O-methyl-L-homoserine), COCC[C@@H](C(=O)[*:2])N(C)[*:1]; F4aao = 4-(carboxymethoxy)-L-phenylalanine, O=C([C@H](Cc1ccc(OCC(=O)[*:3])cc1)N[*:1])[*:2]; MeHseMe = N-methyl-O-methyl-L-homoserine, COCC[C@@H](C(=O)[*:2])N(C)[*:1]; Thr(Me)(3) = TMe, O-methyl-L-threonine, CO[C@H](C)[C@H](N[*:1])C(=O)[*:2]; Thr(Me)″ = TMe = O-methyl-L-threonine, CO[C@H](C)[C@H](N[*:1])C(=O)[*:2]; SulfoCy5 = sulfo-Cyanine5 hexanoyl dye on the side-chain amine; TMe = O-methyl-L-threonine, CO[C@H](C)[C@H](N[*:1])C(=O)[*:2]; NMeAla(isoquinolin-7-yl) = CN[C@@H](Cc1ccc2ccncc2c1)C(=O)O; PEG12 = NCCOCCOCCOCCOCCOCCOCCOCCOCCOCCOCCOCCOCCC(=O)O; 3Pal(6-Ph) = N[C@@H](Cc1ccc(-c2ccccc2)nc1)C(=O)O; Biotin = O=C1N[C@H]2[C@H](CS[C@H]2CCCCC(=O)*)N1; Phe(4-COOH) = N[C@@H](Cc1ccc(C(=O)O)cc1)C(=O)O; d(tBuAla) = CC(C)(C)C[C@@H](N)C(=O)O; NMeI = CC[C@H](C)[C@H](NC)C(=O)O; NMeQ = CN[C@@H](CCC(N)=O)C(=O)O; NMeK = CN[C@@H](CCCCN)C(=O)O; NMeC = CN[C@@H](CS)C(=O)O

The labels stand for the following.
B1: Macrocyclic peptide of Example 2-26 (SEQ ID No. 30) (peptide)
peptide: {CH2CO}-[NMeK][NMeI]D[NMeQ][Phe(4-COOH)][Thr(Me)(3)]I[F4aao][NMeAla(isoquinolin-7-yl)]G[3Pal(6-Ph)][NMeC]-NH2
modifications: thioether N-12
SMILES: CC[C@H](C)[C@@H]1NC(=O)[C@H]([C@@H](C)OC)NC(=O)[C@H](Cc2ccc(C(=O)O)cc2)NC(=O)[C@H](CCC(N)=O)N(C)C(=O)[C@H](CC(=O)O)NC(=O)[C@H]([C@@H](C)CC)N(C)C(=O)[C@H](CCCCN)N(C)C(=O)CSC[C@@H](C(N)=O)N(C)C(=O)[C@H](Cc2ccc(-c3ccccc3)nc2)NC(=O)CNC(=O)[C@H](Cc2ccc3ccncc3c2)N(C)C(=O)[C@H](Cc2ccc(OCC(=O)O)cc2)NC1=O
B2: Macrocyclic peptide of Example 2-38 (SEQ ID No. 55) (peptide)
peptide: KSDXFTIXFGXC
modifications: not fully specified; MeKCOpipzaa-MeHseMe-D-MeDapCOpipzaa-F4COO-TMe-I-Yae-MeNal27N-G-3Py6Ph-MeC-NH2; thioether ring from N-terminal acetyl to MeC12
B3: Macrocyclic peptide of Example 2-59 (SEQ ID No. 63) (peptide)
peptide: {CH2CO}-[NMeK][MeHseMe″]D[NMeQ][Phe(4-COOH)][TMe]I[F4aao][NMeAla(isoquinolin-7-yl)]G[3Pal(6-Ph)][NMeC]-NH2
modifications: thioether N-12
SMILES: CC[C@H](C)[C@@H]1NC(=O)[C@H]([C@@H](C)OC)NC(=O)[C@H](Cc2ccc(C(=O)O)cc2)NC(=O)[C@H](CCC(N)=O)N(C)C(=O)[C@H](CC(=O)O)NC(=O)[C@H](CCOC)N(C)C(=O)[C@H](CCCCN)N(C)C(=O)CSC[C@@H](C(N)=O)N(C)C(=O)[C@H](Cc2ccc(-c3ccccc3)nc2)NC(=O)CNC(=O)[C@H](Cc2ccc3ccncc3c2)N(C)C(=O)[C@H](Cc2ccc(OCC(=O)O)cc2)NC1=O
B4: Macrocyclic peptide of Example B8 (SEQ ID No. 42) (peptide)
peptide: {CH2CO}-[NMeK](d(tBuAla))[NMeI]D[NMeQ][Phe(4-COOH)]II[F4aao][NMeAla(isoquinolin-7-yl)]G[3Pal(6-Ph)][NMeC]-NH2
modifications: thioether N-12
SMILES: CC[C@H](C)[C@@H]1NC(=O)[C@H](Cc2ccc(C(=O)O)cc2)NC(=O)[C@H](CCC(N)=O)N(C)C(=O)[C@H](CC(=O)O)NC(=O)[C@H]([C@@H](C)CC)N(C)C(=O)[C@H](CCCCNC(=O)[C@H](N)CC(C)(C)C)N(C)C(=O)CSC[C@@H](C(N)=O)N(C)C(=O)[C@H](Cc2ccc(-c3ccccc3)nc2)NC(=O)CNC(=O)[C@H](Cc2ccc3ccncc3c2)N(C)C(=O)[C@H](Cc2ccc(OCC(=O)O)cc2)NC(=O)[C@H]([C@@H](C)CC)NC1=O
B5: PLB-35 (peptide)
peptide: KQDQFTIFFGXC
modifications: biotin-PEG12c conjugate of the peptide of SEQ ID No. 35 (MeK-MeQ-D-MeQ-F4COO-TMe-I-F4aao-MeNal27N-G-3Py6Ph-MeC-NH2); site of attachment shown only in a drawing; thioether ring from N-terminal acetyl to MeC12

In the test the target is T1, Human Glypican3-Fc (ACRO Biosystems, GP3-H5258) (human, UniProt P51654 25-559).
T1 construct: Bought fusion protein, captured in Methods B-2, B-3 and B-4; Catalogue number is printed only in Method B-2; not shown: Fc part of the bought fusion
Nature of the test: SPR (Biacore T200), Method B-3: Glypican3-Fc captured on Protein A chip, peptide as analyte. Here is the method: A Protein A sensor chip (Cytiva) was inserted into a Biacore T200 (Cytiva), priming was performed three times with a running buffer: HBS-P+, pH 7.4 (Cytiva), and equilibration was carried out at a flow rate of 30 μL/min. Glypican3-Fc was allowed to react for 60 seconds at a flow rate of 10 μL/min. After capturing human Glypican3-Fe, a peptide solution prepared to 10 mM in DMSO solution was diluted with a running buffer to a final concentration of 10 μM. […] Using the above samples, peptide kinetics for Glypican3 was obtained by SPR measurement. Kinetics evaluation of Glypican3 was performed by SPR measurements at a flow rate of 10 LL/min, setting the association time to 120 seconds and the disassociation time to 600 seconds.
The obtained data by Method B-1, Method B-2, Method B-3 and Method B-4 were analyzed by follow. Single Cycle Kinetics was used as the kinetics evaluation model, and curve fitting was performed using Biacore T200 Evaluation Software Version 3.0 (Cytiva).
For B1, the dissociation constant (Kd) came out at 0.3 nM.

Molecule B2 displayed a Kd of 1.8 nM.

For the molecule {CH2CO}-[NMeK][MeKCOpipzaa]D[MeDapCOpipzaa][3Py6NHaa][Thr(Me)″]I[F4aao][NMeAla(isoquinolin-7-yl)]G[3Pal(6-Ph)][NMeC]-NH2 (thioether N-12) [Macrocyclic peptide of Example 2-30 (SEQ ID No. 47)], the Kd amounted to 6.6 nM.

The molecule B3 showed an equilibrium dissociation constant (Kd) of 1.55 nM.

As for {CH2CO}-[NMeK](dE)[NMeI]D[NMeQ][Phe(4-COOH)]II[F4aao][NMeAla(isoquinolin-7-yl)]G[3Pal(6-Ph)][NMeC]-NH2 (thioether N-12) [Macrocyclic peptide of Example B9 (SEQ ID No. 33)], binding was put at a Kd of 0.52 nM.

The molecule {CH2CO}-[NMeK]([PEG12-Biotin])[NMeI]D[NMeQ][Phe(4-COOH)]IIY[NMeAla(isoquinolin-7-yl)]G[3Pal(6-Ph)][NMeC]-NH2 (thioether N-12, Biotin conjugate) [PLB-1] had an equilibrium dissociation constant (Kd) of 0.25 nM.

As for {CH2CO}-[NMeK](SulfoCy5)[MeHseMe]D[NMeQ][Phe(4-COOH)]II[F4aao][NMeAla(isoquinolin-7-yl)]G[3Pal(6-Ph)][NMeC]-NH2 (thioether N-12) [Mod5], binding was characterised by a dissociation constant (Kd) of 3.6 nM.

Molecule B4 registered a Kd of 0.57 nM.

B5: the dissociation constant Kd stood at 3.63 nM.

In turn, {CH2CO}-[NMeK](SulfoCy5)[NMeI]D[NMeQ][Phe(4-COOH)][TMe]IY[NMeAla(isoquinolin-7-yl)]G[3Pal(6-Ph)][NMeC]-NH2 (thioether N-12) [Mod6] displayed a dissociation constant (Kd) of 0.24 nM.
